B1: ARC1203 (ssDNA)
DNA: GGCGTGCAGUGCCTTCGGCCGTGCGGTGCCTCCGTCACGCC
modifications: 2'-OMe at 10 (mU); 3'-idT
B2: ARC1216 (ssDNA)
DNA: GGCGTGCAGTGCCTTCGGCCGTGCGGTGCCTCCGTCACGCC
modifications: 2'-OMe at 23; 3'-idT
B3: ARC1222 (ssDNA)
DNA: GGCGTGCAGTGCCTTCGGCCGTGCGGTGCCTCCGTCACGCC
modifications: 2'-OMe at 29; 3'-idT
B4: ARC1227 (ssDNA)
DNA: GGCGTGCAGTGCCTTCGGCCGTGCGGTGCCTCCGTCACGCC
modifications: 2'-OMe at 34; 3'-idT
B5: ARC1240 (ssDNA)
DNA: GGCGTGCAGTGCCTTCGGCCGTGCGGTGCCTCCGTCACGCC
modifications: 2'-OMe at 11,12,13,17,18,19; 3'-idT
B6: ARC1231 (ssDNA)
DNA: GGCGTGCAGTGCCTTCGGCCGTGCGGTGCCTCCGTCACGCC
modifications: 2'-OMe at 38; 3'-idT
B7: ARC1206 (ssDNA)
DNA: GGCGTGCAGTGCCTTCGGCCGTGCGGTGCCTCCGTCACGCC
modifications: 2'-OMe at 13; 3'-idT
B8: ARC1205 (ssDNA)
DNA: GGCGTGCAGTGCCTTCGGCCGTGCGGTGCCTCCGTCACGCC
modifications: 2'-OMe at 12; 3'-idT
B9: ARC1228 (ssDNA)
DNA: GGCGTGCAGTGCCTTCGGCCGTGCGGTGCCTCCGUCACGCC
modifications: 2'-OMe at 35 (mU); 3'-idT
B10: ARC1221 (ssDNA)
DNA: GGCGTGCAGTGCCTTCGGCCGTGCGGTGCCTCCGTCACGCC
modifications: 2'-OMe at 28; 3'-idT
B11: ARC1238 (ssDNA)
DNA: GGCGTGCAGTGCCTTCGGCCGTGCGGTGCCTCCGTCACGCC
modifications: 2'-OMe at 11,17,18; 3'-idT
B12: ARC1213 (ssDNA)
DNA: GGCGTGCAGTGCCTTCGGCCGTGCGGTGCCTCCGTCACGCC
modifications: 2'-OMe at 20; 3'-idT
B13: AMX237.G6 (ssDNA)
DNA: CTACCTACGATCTGACTAGCGTGCAGTGCCTATTCCAGGCCGTGCGGTGCCTCCGTCACGCTTACTCTCATGTAGTTCC
B14: AMX238.H5 (ssDNA)
DNA: CTACCTACGATCTGACTAGCGTGCAGTGCCTATTCTAGGCCGTGCGGTGCCTCCGTCACGCTTACTCTCATGTAGTTCC
B15: AMX238.E9 (ssDNA)
DNA: CTACCTACGATCTGACTAGCGTGCAGTGCCCATCTTAGGCCGTGCGGTGCCTCCGTCACGCTTACTCTCATGTAGTTCC
B16: rRdY minimer SEQ 192 (mixed)
DNA: GGAGCCACACGACATTGGCGGGCGAGAGCCACGCATGGCTCC
modifications: 2'-OH purines, deoxy pyrimidines
B17: rRdY minimer SEQ 180 (mixed)
DNA: GGAGCCACGGGGTGGGTAGACGGCGGGTATGTGGCTCC
modifications: 2'-OH purines, deoxy pyrimidines
B18: rRdY minimer SEQ 198 (mixed)
DNA: GGCCACACGACATTGGCGGGCGAGAGCCACGCATGGCC
modifications: 2'-OH purines, deoxy pyrimidines
B19: rRdY minimer SEQ 189 (mixed)
DNA: GGAGCCACACGACATTGGCGGGTTGTAATTACCACGCATGGCTCC
modifications: 2'-OH purines, deoxy pyrimidines
B20: rRdY minimer SEQ 183 (mixed)
DNA: GGGACGGGGTGGGTAGACGGCGGGTATGTCCC
modifications: 2'-OH purines, deoxy pyrimidines
B21: DNA1 minimer SEQ 204 (ssDNA)
DNA: CCAGCGGAATGAGAATGCTGATGGATTGCTCAGGTCTGCTGG
B22: DNA1 minimer SEQ 206 (ssDNA)
DNA: CGATCTGACTAGCGGAATGAGAATGCTGGTGGATCG
B23: ARC1230 (ssDNA)
DNA: GGCGTGCAGTGCCTTCGGCCGTGCGGTGCCTCCGTCACGCC
modifications: 2'-OMe at 37; 3'-idT
B24: ARC1194 (ssDNA)
DNA: GGCGTGCAGTGCCTTCGGCCGTGCGGTGCCTCCGTCACGCC
modifications: 2'-OMe at 1; 3'-idT
B25: ARC1196 (ssDNA)
DNA: GGCGTGCAGTGCCTTCGGCCGTGCGGTGCCTCCGTCACGCC
modifications: 2'-OMe at 3; 3'-idT
B26: ARC1197 (ssDNA)
DNA: GGCGTGCAGTGCCTTCGGCCGTGCGGTGCCTCCGTCACGCC
modifications: 2'-OMe at 4; 3'-idT
B27: ARC1885 (ssDNA)
DNA: GGCGTGCAGTGCCTTCGGCCGTGCGGTGCCTCCGTCACGCC
modifications: 5'-PEG20K-hexylamine; 3'-idT
B28: ARC1779 (mixed)
mixed: GCGUGCAGUGCCUUCGGCCGTGCGGTGCCUCCGUCACGC
modifications: 2'-OMe at 1-4,8-18,20,22,27,28,30,33,34,36-39, rest deoxy; PS between 20 and 21; 5'-PEG20K-hexylamine; 3'-idT
B29: ARC1780 (mixed)
mixed: GCGUGCAGUGCCUUCGGCCGTGCGGTGCCUCCGUCACGC
modifications: 2'-OMe at 1-4,8-18,20,22,27,28,30,33,34,36-39, rest deoxy; PS between 20 and 21; 5'-PEG40K-hexylamine; 3'-idT [2'-OMe at 1-4,8-18,20,22,27,28,30,33,34,36-39, rest deoxy; PS between 20 and 21 (printed S left out); 5'-PEG40K-hexylamine (left out); 3'-idT at 40]
B30: ARC1546 (mixed)
mixed: CCGGCCGTGCGGTGCCUCCGUCACGUUCCGUGCAGUGCCGG
modifications: 2'-OMe/deoxy composite, single PS, 3'-idT
B31: ARC1223 (ssDNA)
DNA: GGCGTGCAGTGCCTTCGGCCGTGCGGTGCCTCCGTCACGCC
modifications: 2'-OMe C30, 3'-idT
B32: ARC1341 (mixed)
mixed: GGCGUGCAGUGCCUUCGGCCGTGCGGTGCCTCCGTCACGCC
modifications: 2'-OMe at 1-5, 9-19, 37-41, 3'-idT
B33: AMX201.A8 (ssRNA)
RNA: GGAGCGCACUCAGCCACGCUGUACACUGAUGUUGUAACAUGUACCCCCUGGCUGUUUCGACCUCUCUGCUAGC
modifications: 2'-F pyrimidines
B34: AMX201.D3 (ssRNA)
RNA: GGAGCGCACUCAGCCACGCCCACGUCAAAUUAUAGUCUACUUUGAUGUGCCCGUGGUUUCGACCUCUCUGCUAGC
modifications: 2'-F pyrimidines

These binders were tested against T1, von Willebrand factor full length (Homo sapiens, UniProt P04275 SEQ:764-2813) (assay: filter; 40% bound at 100 nM). Settings: tags: Calbiochem 681300.
Procedure: (§1) For KD determination, chemically synthesized aptamers were purified using denaturing polyacrylamide gel electrophoresis, 5′end labeled with γ-³²P ATP and were tested for direct binding to full length human vWF (Calbiochem Cat.# 681300, La Jolla, Calif.). An 8 point protein titration was used in the dot blot binding assay (100 nM, 30 nM, 10 nM, 3 nM, 1 nM, 300 pM, 100 pM, 0 pM)) in 1× Dulbecco's PBS containing […] (final volume of 50 uL) for 30 minutes at room temperature. KD values were calculated by fitting the equation y=(max/(1+K/protein))+yint using KaleidaGraph (KaleidaGraph v. 3.51, Synergy Software).

Question: For B1, which Kd is on record?
Answer: 3 nM

Question: Which Kd does the source give for B2 here?
Answer: 0.6 nM

Question: How did the Kd turn out when B3 was run?
Answer: 0.9 nM

Question: How did the Kd turn out when B4 was run?
Answer: 3 nM

Question: How did the Kd turn out when B5 was run?
Answer: 4 nM

The binders below were run against T1, von Willebrand factor full length (assay: filter; 50% bound at 100 nM). Settings: tags: Calbiochem 681300.
Procedure: as §1

Question: How did the Kd turn out when B6 was run?
Answer: 1 nM

Question: For B7, which Kd is on record?
Answer: 2 nM

Question: With B8 as the binder, how does the Kd read?
Answer: 1 nM

Each binder was assayed against T1, von Willebrand factor full length (assay: filter; 43% bound at 100 nM). Settings: tags: Calbiochem 681300.
Procedure: as §1

Question: With B9 as the binder, how does the Kd read?
Answer: 2 nM

Question: For B10, which Kd is on record?
Answer: 1 nM

Question: Which Kd does the source give for B11 here?
Answer: 2 nM

Question: B12 was tested. Which Kd did it give?
Answer: 6 nM

What follows are binders tested against T1, von Willebrand factor full length (assay: filter; DPBS, 0.1 mg/mL BSA, RT). Settings: tags: Calbiochem 681300; label: 5'-32P.
Procedure: Based on this initial screen, KDs were determined for 3 of the vWF dependent binding sequences using the dot blot assay. […] A 12 point protein titration was used in the dot blot assay (300 nM, 100 nM, 30 nM, 10 nM, 3 nM, 1 nM, 300 pM, 100 pM, 30 pM, 10 pM, 3 pM, 0 pM) in 1× DPBS plus 0.1 mg/mL BSA at room temperature for 30 minutes. KD values were calculated by fitting the equation y=(max/(1+K/protein))+yint using KaleidaGraph (KaleidaGraph v. 3.51, Synergy Software).

Question: For B13, which Kd is on record?
Answer: 0.2 nM

Question: B14 was tested. Which Kd did it give?
Answer: 0.33 nM

Question: How did the Kd turn out when B15 was run?
Answer: 0.39 nM

Biological target: T1, von Willebrand factor full length
Assay: filter; DPBS, 0.1 mg/mL BSA, RT
Settings: tags: Calbiochem 681300; label: 5'-32P
Remark: another data set of the same source
Procedure: (§2) KD values were calculated by fitting the equation y=(max/(1+K/protein))+yint using KaleidaGraph (KaleidaGraph v. 3.51, Synergy Software).

Question: How did the Kd turn out when B16 was run?
Answer: 2 nM

Question: How did the Kd turn out when B17 was run?
Answer: 1 nM

Question: For B18, which Kd is on record?
Answer: 3 nM

Question: With B19 as the binder, how does the Kd read?
Answer: 1 nM

Question: With B20 as the binder, how does the Kd read?
Answer: 10 nM

What follows are binders tested against T2, von Willebrand factor A1 domain (Homo sapiens, UniProt P04275 SEQ:13-246) (assay: filter; DPBS, 0.1 mg/mL BSA, RT). Settings: label: 5'-32P.
Procedure: as §2

Question: Which Kd does the source give for B16 here?
Answer: 4 nM

Question: For B17, which Kd is on record?
Answer: 11 nM

Question: Which Kd does the source give for B18 here?
Answer: 5 nM

The binders below were run against T2, von Willebrand factor A1 domain (assay: filter; no binding). Settings: label: 5'-32P.

Question: Does B21 bind?
Answer: no binding

Question: Does B22 bind?
Answer: no binding

These binders were tested against T1, von Willebrand factor full length (assay: filter; 46% bound at 100 nM). Settings: tags: Calbiochem 681300.
Procedure: as §1

Question: For B23, which Kd is on record?
Answer: 3 nM

Question: Which Kd does the source give for B24 here?
Answer: 3 nM

Question: How did the Kd turn out when B25 was run?
Answer: 2 nM

Question: For B26, which Kd is on record?
Answer: 2 nM

What follows are binders tested against T1, von Willebrand factor full length (assay: cell_activity; IC90 BIPA in human platelet rich plasma). Settings: not given.
Procedure: In order to determine the activity of aptamers on live human platelets, BIPA assays were done using freshly prepared platelet rich plasma. Blood was obtained from healthy human donors who had not taken NSAIDS for at least five days. […] Collected blood was pooled into 15 mL conical tubes and was spun at 200 g for 20 minutes. The turbid, yellow layer of platelet rich plasma (“PRP”) was withdrawn from the tubes, pooled, and set aside at room temperature. The remaining blood was spun at 2500 g for ten minutes. The clarified layer of plasma, known as platelet poor plasma (“PPP”), was withdrawn and set aside at room temperature. PRP was aliquoted into cuvettes containing stir bars at a volume of 470 uL. A sample of 500 uL of PPP was aliquoted into a cuvette and placed in the PPP reference cell of the platelet aggregometer. Samples of PRP were prewamed at 37 degrees C. in the platelet aggregometer for 3-5 minutes before being used in BIPA assays. First, the concentration of botrocetin needed to induce platelet aggregation for each individual donor was determined by titration. This concentration of botrocetin was used for the remainder of the experiment. Next, aptamer was assayed by adding titrations of aptamer (zero, 1 nM to 1000 nM) to prewarmed PRP for one minute, followed by addition of botrocetin. With platelet aggregation, an increase in amplitude of light transmission is seen (FIG. 8). The concentration at which platelet aggregation is blocked at 90% or greater after 6 minutes is reported in the final column of Table 26.

Question: For B27, which activity is on record?
Answer: ~50 nM

Question: How did the activity turn out when B28 was run?
Answer: ~100 nM

Question: How did the activity turn out when B29 was run?
Answer: ~100 nM

The binders below were run against T1, von Willebrand factor full length (assay: filter; 26% bound at 100 nM vWF). Settings: tags: Calbiochem 681300; label: 5'-32P.
Procedure: as §1

Question: With B30 as the binder, how does the Kd read?
Answer: 24 nM

Question: B31 was tested. Which Kd did it give?
Answer: 36 nM

Question: For B32, which Kd is on record?
Answer: 22.5 nM

These binders were tested against von Willebrand factor A1 domain (human) (Homo sapiens, UniProt P04275 SEQ:13-246) (assay: filter; 100 nM protein). Settings: not given.
Source text: When a significant positive ratio of binding of RNA in the presence of human or rabbit vWF A1 domain versus in the absence of protein was seen, the pools were cloned using the TOPO TA cloning kit (Invitrogen, Cat.# 45-0641, Carlsbad, Calif.) according to the manufacturer's instructions. Round 9 and 12 pool templates were cloned and sequenced (125 total sequences), producing 48 unique clones. All unique clones were transcribed, desalted, 5-³²P end-labeled, and assayed in a 3-point dot blot screen (no protein target control, 100 nM human vWF A1 domain (SEQ ID NO 5, FIG. 3), or 100 nM rabbit vWF A1 domain (SEQ ID NO 6, FIG. 3). The data is presented in the third and fourth columns of Table 4 below as the ratio of the fraction of the aptamer bound to the nitrocellulose in the presence of the target protein to the fraction of aptamer bound in the absence of the target protein.

Question: Which binding signal does the source give for B33 here?
Answer: 1.82 ratio to no protein

Question: B34 was tested. Which binding signal did it give?
Answer: 1.76 ratio to no protein

Reference: patent publication US20060264369, “Aptamers to von Willebrand Factor and their use as thrombotic disease therapeutics” (published 2006)
